The results in this text go back to PMC9860392, “The N-terminal domain of human mitochondrial helicase Twinkle has DNA-binding activity crucial for supporting processive DNA synthesis by polymerase γ” (The Journal of Biological Chemistry, 2022).

Series [1] deals with T1, FL Twinkle (mitochondrial helicase) (Homo sapiens, UniProt Q96RR1 43-684).
T1 sequence: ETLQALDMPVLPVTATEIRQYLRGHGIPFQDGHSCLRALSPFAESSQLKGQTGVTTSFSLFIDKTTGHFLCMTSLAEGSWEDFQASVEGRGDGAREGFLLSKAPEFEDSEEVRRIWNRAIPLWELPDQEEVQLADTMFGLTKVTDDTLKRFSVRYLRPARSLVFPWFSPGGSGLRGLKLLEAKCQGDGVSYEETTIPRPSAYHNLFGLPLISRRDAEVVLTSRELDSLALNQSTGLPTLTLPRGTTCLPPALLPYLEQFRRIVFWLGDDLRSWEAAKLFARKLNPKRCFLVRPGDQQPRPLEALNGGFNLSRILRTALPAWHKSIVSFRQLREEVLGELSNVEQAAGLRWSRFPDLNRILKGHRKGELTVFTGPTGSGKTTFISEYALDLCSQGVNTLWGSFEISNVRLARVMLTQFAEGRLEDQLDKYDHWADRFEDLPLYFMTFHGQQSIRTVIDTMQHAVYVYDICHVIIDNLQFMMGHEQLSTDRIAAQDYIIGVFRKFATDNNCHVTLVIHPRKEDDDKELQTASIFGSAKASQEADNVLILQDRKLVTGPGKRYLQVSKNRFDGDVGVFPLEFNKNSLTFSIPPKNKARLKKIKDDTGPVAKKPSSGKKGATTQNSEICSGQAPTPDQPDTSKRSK
Put plainly: fluorescence anisotropy; 50 mM NaCl; 50 mM Tris acetate pH 7.5, 10% glycerol, 0.05% Tween-20, 0.5 mM DTT, 0 or 50 mM NaCl; 2.5 nM DNA; no Mg2+ or nucleotide listed; temperature not stated. The following applies: protein: recombinant; tags: SUMO tag removed (ULP1); chain copies: 6; label: 3' fluorescein-T; single strand.

For series [2], the target named is T2, Twinkle CTD (C-terminal domain plus linker) (Homo sapiens, UniProt Q96RR1 360-684).
T2 sequence: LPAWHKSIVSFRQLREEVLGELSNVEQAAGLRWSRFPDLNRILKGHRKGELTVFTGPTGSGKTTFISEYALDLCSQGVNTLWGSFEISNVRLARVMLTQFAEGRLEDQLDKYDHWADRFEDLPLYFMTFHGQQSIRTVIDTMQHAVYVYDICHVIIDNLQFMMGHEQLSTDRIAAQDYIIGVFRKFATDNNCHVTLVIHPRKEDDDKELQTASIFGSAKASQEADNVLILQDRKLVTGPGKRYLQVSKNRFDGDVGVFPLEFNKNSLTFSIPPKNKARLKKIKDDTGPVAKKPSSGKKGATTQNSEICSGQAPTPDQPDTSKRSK
The series is described as above. As to conditions: protein: recombinant; tags: SUMO tag removed (ULP1); chain copies: 6; label: 3' fluorescein-T; single strand.

Series [3] addresses T1, FL Twinkle (mitochondrial helicase). Put plainly: fluorescence anisotropy; no NaCl added; 50 mM Tris acetate pH 7.5, 10% glycerol, 0.05% Tween-20, 0.5 mM DTT, 0 or 50 mM NaCl; 2.5 nM DNA; no Mg2+ or nucleotide listed; temperature not stated. As to conditions: protein: recombinant; tags: SUMO tag removed (ULP1); chain copies: 6; label: 3' fluorescein-T; single strand.
Series [4] has as its target T2, Twinkle CTD (C-terminal domain plus …). The description is as above. The following applies: protein: recombinant; tags: SUMO tag removed (ULP1); chain copies: 6; label: 3' fluorescein-T; single strand.
The target in series [5] is T3, Twinkle NTD (Homo sapiens, UniProt Q96RR1 43-372).
T3 sequence: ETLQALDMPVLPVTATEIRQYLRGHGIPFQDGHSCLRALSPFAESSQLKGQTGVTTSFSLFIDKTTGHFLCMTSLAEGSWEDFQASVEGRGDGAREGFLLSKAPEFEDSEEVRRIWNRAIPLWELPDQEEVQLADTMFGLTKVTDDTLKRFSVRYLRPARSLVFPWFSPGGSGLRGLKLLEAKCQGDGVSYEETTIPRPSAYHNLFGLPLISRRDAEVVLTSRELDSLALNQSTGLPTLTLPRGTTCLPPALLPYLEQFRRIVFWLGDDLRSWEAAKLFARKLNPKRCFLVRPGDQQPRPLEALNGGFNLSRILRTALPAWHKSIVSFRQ
Put plainly: fluorescence anisotropy; no NaCl added; weak phase of two-site fit; 50 mM Tris acetate pH 7.5, 10% glycerol, 0.05% Tween-20, 0.5 mM DTT, 0 or 50 mM NaCl; 2.5 nM DNA; no Mg2+ or nucleotide listed; temperature not stated. As to conditions: protein: recombinant; tags: SUMO tag removed (ULP1); label: 3' fluorescein-T; single strand.

Series [6] addresses T3, Twinkle NTD. Put plainly: fluorescence anisotropy; no NaCl added; tight phase of two-site fit; 50 mM Tris acetate pH 7.5, 10% glycerol, 0.05% Tween-20, 0.5 mM DTT, 0 or 50 mM NaCl; 2.5 nM DNA; no Mg2+ or nucleotide listed; temperature not stated. As to conditions: protein: recombinant; tags: SUMO tag removed (ULP1); label: 3' fluorescein-T; single strand.
Series [7] concerns the target T3, Twinkle NTD. Kind of series: fluorescence anisotropy; no NaCl added; 50 mM Tris acetate pH 7.5, 10% glycerol, 0.05% Tween-20, 0.5 mM DTT, 0 or 50 mM NaCl; 2.5 nM DNA; no Mg2+ or nucleotide listed; temperature not stated. The following applies: protein: recombinant; tags: SUMO tag removed (ULP1); label: 3' fluorescein-T; single strand.
Series [8] addresses T1, FL Twinkle (mitochondrial helicase). Kind of series: fluorescence anisotropy; 50 mM NaCl (error exceeds value); 50 mM Tris acetate pH 7.5, 10% glycerol, 0.05% Tween-20, 0.5 mM DTT, 0 or 50 mM NaCl; 2.5 nM DNA; no Mg2+ or nucleotide listed; temperature not stated. As to conditions: protein: recombinant; tags: SUMO tag removed (ULP1); chain copies: 6; label: 3' fluorescein-T; single strand.

For series [9], the target named is T3, Twinkle NTD. Kind of series: fluorescence anisotropy; no NaCl added; negligible binding; 50 mM Tris acetate pH 7.5, 10% glycerol, 0.05% Tween-20, 0.5 mM DTT, 0 or 50 mM NaCl; 2.5 nM DNA; no Mg2+ or nucleotide listed; temperature not stated. The following applies: protein: recombinant; tags: SUMO tag removed (ULP1); label: 3' fluorescein-T; single strand.
Series [10] deals with the molecule itself. Kind of series: SEC; Superdex 200 Increase 10/300 GL, 4 °C, 0.3 ml/min; 15 μl of 38.5 μM (monomer) FL Twinkle in 50 mM Tris-Cl pH 7.1, 5% glycerol, 300 mM NaCl, 1 mM TCEP; size from a calibration curve of protein standards.
Series [11] deals with the molecule itself. Put plainly: SEC; Superdex 200 Increase 10/300 GL, 4 °C, 0.3 ml/min; 50 μl of 10 μM (monomer) CTD in 50 mM Tris-Cl pH 7.1, 5% glycerol, 600 mM NaCl; size from a calibration curve of protein standards.

B1: 20 nt ssDNA (ssDNA)
DNA: TGCTATAACTCTTGAACACT
For the molecule B1, the Kd in [1] came to 8.8 ± 1.3 nM; in series [2] it was 50 ± 11 nM; in series [3] it was 1.9 ± 0.5 nM; in [4], 2.2 ± 0.7 nM; with Twinkle NTD [5] it was 1200 ± 640 nM; with Twinkle NTD [6] it was 18 ± 7 nM.

B2: 12 nt ssDNA (ssDNA)
DNA: CTCTTGAACACT
On to B2, for which the Kd in series [1] is 53 ± 17 nM; with Twinkle NTD [7], 141 ± 25 nM; in [3], 5.2 ± 1 nM; in series [4] it was 21.7 ± 3 nM.

B3: 14 nt ssDNA (ssDNA)
DNA: AACTCTTGAACACT
For the molecule B3, the Kd in [1] was 39 ± 16 nM; with Twinkle NTD [7] it was 121 ± 26 nM; in [3], 3.3 ± 0.7 nM; in [4], 8.8 ± 1.5 nM.

B4: 8 nt ssDNA (ssDNA)
DNA: TGAACACT
Turning to B4, the Kd in [3] is 9 ± 4.9 nM; in series [4], 116 ± 41 nM; in [8], 10 ± 12 nM. In addition, in the series with Twinkle NTD [9], the binding result was “no binding”.

B5: 30 nt ssDNA (ssDNA)
DNA: TGTGTTAGTTGGGGGGTGACTGTTAAAAGT
Regarding B5, the Kd in series [1] was 2.6 ± 0.5 nM; in series [2], 4.5 ± 0.9 nM; in series [3], 1.6 ± 0.3 nM; in series [4] it was 1.7 ± 0.5 nM; in the series with Twinkle NTD [5], 730 ± 450 nM; in the series with Twinkle NTD [6], 17.5 ± 4 nM.

B6: 16 nt ssDNA (ssDNA)
DNA: ATAACTCTTGAACACT
Take B6: the Kd in series [1] was determined as 22.6 ± 5.1 nM; with Twinkle NTD [7] it was 105 ± 24 nM; in series [3] it was 2.8 ± 0.7 nM; in [4], 5.2 ± 1.4 nM.

B7: full-length (FL) human Twinkle (amino acids 43-684) (enzyme, UniProt Q96RR1 43-684, looked up)
chain: ETLQALDMPVLPVTATEIRQYLRGHGIPFQDGHSCLRALSPFAESSQLKGQTGVTTSFSLFIDKTTGHFLCMTSLAEGSWEDFQASVEGRGDGAREGFLLSKAPEFEDSEEVRRIWNRAIPLWELPDQEEVQLADTMFGLTKVTDDTLKRFSVRYLRPARSLVFPWFSPGGSGLRGLKLLEAKCQGDGVSYEETTIPRPSAYHNLFGLPLISRRDAEVVLTSRELDSLALNQSTGLPTLTLPRGTTCLPPALLPYLEQFRRIVFWLGDDLRSWEAAKLFARKLNPKRCFLVRPGDQQPRPLEALNGGFNLSRILRTALPAWHKSIVSFRQLREEVLGELSNVEQAAGLRWSRFPDLNRILKGHRKGELTVFTGPTGSGKTTFISEYALDLCSQGVNTLWGSFEISNVRLARVMLTQFAEGRLEDQLDKYDHWADRFEDLPLYFMTFHGQQSIRTVIDTMQHAVYVYDICHVIIDNLQFMMGHEQLSTDRIAAQDYIIGVFRKFATDNNCHVTLVIHPRKEDDDKELQTASIFGSAKASQEADNVLILQDRKLVTGPGKRYLQVSKNRFDGDVGVFPLEFNKNSLTFSIPPKNKARLKKIKDDTGPVAKKPSSGKKGATTQNSEICSGQAPTPDQPDTSKRSK
notes: human mitochondrial helicase Twinkle, amino acids 43-684; SUMO fusion cut with ULP1 SUMO-protease; the fusion was purified on Ni resin, so it probably carried a His tag that left with SUMO; also called FL Twinkle; TWNK; source: E. coli Rosetta 2 DE3 pLacI, purified (PEI, ammonium sulfate, Ni sepharose, Q sepharose, heparin)
As for B7, the “stoichiometry N” value in series [10] is approximately 7 subunits.

B8: Twinkle C-terminal domain plus linker (amino acids 360-684) (domain or fragment, human, UniProt Q96RR1 360-684, looked up)
chain: LPAWHKSIVSFRQLREEVLGELSNVEQAAGLRWSRFPDLNRILKGHRKGELTVFTGPTGSGKTTFISEYALDLCSQGVNTLWGSFEISNVRLARVMLTQFAEGRLEDQLDKYDHWADRFEDLPLYFMTFHGQQSIRTVIDTMQHAVYVYDICHVIIDNLQFMMGHEQLSTDRIAAQDYIIGVFRKFATDNNCHVTLVIHPRKEDDDKELQTASIFGSAKASQEADNVLILQDRKLVTGPGKRYLQVSKNRFDGDVGVFPLEFNKNSLTFSIPPKNKARLKKIKDDTGPVAKKPSSGKKGATTQNSEICSGQAPTPDQPDTSKRSK
notes: human mitochondrial helicase Twinkle, amino acids 360-684 (linker region and C-terminal domain; 36,650 Da); Cloned in the pET28 SUMO expression vector; SUMO cut with ULP1 SUMO-protease; the fusion was purified on Ni resin, so it probably carried a His tag that left with SUMO; also called CTD; Twinkle CTD; source: E. coli Rosetta 2 DE3 pLacI, purified (PEI, ammonium sulfate, Ni-NTA, heparin)
With B8, the “stoichiometry N” value in series [11] was approximately 12 subunit.
